We go through one protein from article PMC6379061 (Nature, 2018).

This data set concerns the molecule itself. Nature of the data set: cryo-EM structure.

B1: human ABCG2 E211Q mutant (ABCG2EQ) (natural protein)
chain: MSSSNVEVFIPVSQGNTNGFPATASNDLKAFTEGAVLSFHNICYRVKLKSGFLPCRKPVEKEILSNINGIMKPGLNAILGPTGGGKSSLLDVLAARKDPSGLSGDVLINGAPRPANFKCNSGYVVQDDVVMGTLTVRENLQFSAALRLATTMTNHEKNERINRVIQELGLDKVADSKVGTQFIRGVSGGERKRTSIGMELITDPSILFLDQPTTGLDSSTANAVLLLLKRMSKQGRTIIFSIHQPRYSIFKLFDSLTLLASGRLMFHGPAQEALGYFESAGYHCEAYNNPADFFLDIINGDSTAVALNREEDFKATEIIEPSKQDKPLIEKLAEIYVNSSFYKETKAELHQLSGGEKKKKITVFKEISYTTSFCHQLRWVSKRSFKNLLGNPQASIAQIIVTVVLGLVIGAIYFGLKNDSTGIQNRAGVLFFLTTNQCFSSVSAVELFVVEKKLFIHEYISGYYRVSSYFLGKLLSDLLPMRMLPSIIFTCIVYFMLGLKPKADAFFVMMFTLMMVAYSASSMALAIAAGQSVVSVATLLMTICFVFMMIFSGLLVNLTTIASWLSWLQYFSIPRYGFTALQHNEFLGQNFCPGLNATGNNPCNYATCTGEEYLVKQGIDLSPWGLWKNHVALACMIVIFLTIAYLKLLFLKKYS
Regarding B1, the binding result is “binds”.
